Data as given in the supplement of paper PMC10567573.

B1: TNXB (parent)
chain: FSEIRETSAKVNWMPPPSRADSFK
B2: PBXIP1 (parent)
chain: LQQLRARLQGLEADCVRGPDGVCL

Variants of: B1
Test: protein stability index of a GFP-peptide fusion (GPS, HEK-293T) (PSI 1-6); higher = more stable
Details: c terminus: a fixed tail appended
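Note: lentivirally expressed fusions sorted by FACS into six bins by GFP to DsRed ratio, PSI derived from sequencing read proportions per bin multiplied by bin number.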

Variant	protein stability index
K24Y	2.64
K24A	2.92
K24I	2.44
K24H	2.73
K24C	2.94
K24D	3.41
K24F	2.47
K24S	3.29
K24R	3.29
K24N	3.43
K24V	2.63
K24Q	3.33
K24W	1.69
K24M	2.48
K24E	3.21
K24T	3.37
K24P	3.14
K24G	3.35
K24L	2.42
D21T	2.6
D21A	3.17
D21P	3.61
D21H	3.13
D21W	2.45
D21N	3.34
D21Q	3.5

Variant	protein stability index
D21I	3.05
D21S	3.62
D21V	3.28
D21G	3.52
D21C	2.79
D21F	2.02
D21K	3.76
D21L	3.06
D21M	3.41
D21E	3.79
D21R	3.52
D21Y	3.01
M14G	3.63
M14V	2.96
M14N	3.4
M14W	2.98
M14K	3.52
M14F	3.13
M14L	3.31
M14R	4.26
M14D	3.91
M14Y	2.64
M14H	3.44
M14C	2.63
M14E	4.11
M14I	3.11

Variant	protein stability index
M14S	3.92
M14A	3.17
M14Q	3.92
P17W	2.79
P17R	3.3
P17C	2.81
P17T	3.99
P17Q	3.24
P17K	3.43
P17L	2.86
P17F	3.19
P17A	3.65
P17E	4.09
P17H	3.08
P17V	3.23
P17D	3.84
P17Y	2.67
P17N	3.35
P17G	3.81
P17M	2.97
P17S	3.44
P17I	3.36
S18I	2.46
S18K	3.57
S18N	3.18
S18F	2.71

Variant	protein stability index
S18W	1.98
S18A	3.68
S18M	2.89
S18C	3.37
S18H	3.3
S18D	3.52
S18G	3.51
S18T	3.16
S18P	3.42
S18R	3.43
S18Y	3.5
S18E	3.67
S18Q	3.64
S18L	2.75
S18V	3.32
F23R	4.44
F23Y	3.09
F23T	4.06
F23V	4.07
F23D	4.56
F23M	3.82
F23H	4.12
F23G	3.24
F23W	3.32
F23K	4.12
F23E	4.33

Variant	protein stability index
F23A	4.04
F23P	4.55
F23S	3.89
F23C	4.22
F23Q	3.58
F23L	3.91
F23N	4.1
F23I	3.5
W13I	4.47
W13D	4.8
W13V	4.17
W13L	4
W13P	4.43
W13T	4.03
W13M	3.98
W13A	4.11
W13R	4.21
W13H	3.61
W13C	4.27
W13N	4.49
W13K	4.55
W13S	3.83
W13Y	4.06
W13G	4.15
W13Q	4.23
W13F	3.57

Variant	protein stability index
W13E	4.94
P15N	3.12
P15Q	3.36
P15Y	2.22
P15K	3.33
P15T	3.38
P15D	3.85
P15I	2.18
P15R	3.21
P15L	3.21
P15G	3.29
P15W	2.56
P15M	3.27
P15F	2.46
P15C	2.71
P15E	3.49
P15S	3.15
P15V	3.48
P15A	3.51
P15H	3.42
S22R	3.95
S22Y	3.32
S22K	3.58
S22I	3.38
S22M	2.79
S22H	3.27

Variant	protein stability index
S22V	2.94
S22Q	3.42
S22T	3.26
S22L	3.22
S22N	3.38
S22A	3.32
S22C	3.29
S22E	3.69
S22F	2.39
S22G	2.97
S22W	2.62
S22D	3.62
S22P	3.36
P16R	2.87
P16H	3.05
P16F	2.67
P16V	3.41
P16T	3.27
P16K	3.33
P16M	2.89
P16D	3.03
P16C	3.14
P16G	2.8
P16I	3.15
P16S	3.69
P16Q	3.23

Variant	protein stability index
P16N	2.89
P16E	3.52
P16Y	2.67
P16W	1.82
P16A	3.05
P16L	3.02
R19W	2.18
R19N	3.85
R19E	4.2
R19L	2.65
R19D	4.25
R19A	3.52
R19S	3.73
R19Q	3.6
R19V	3.38
R19Y	3.19
R19M	3.12
R19K	3.6
R19C	3.33
R19F	2.49
R19G	3.43
R19T	3.71
R19P	3.7
R19I	3.12
R19H	3.15
A20Y	2.93

Variant	protein stability index
A20D	3.88
A20R	3.61
A20N	3.27
A20K	3.8
A20H	3.45
A20E	3.6
A20W	2.92
A20L	2.9
A20P	3.13
A20V	2.46
A20G	3.24
A20F	2.73
A20Q	3.27
A20C	3.71
A20M	2.79
A20T	2.8
A20I	3.05
A20S	3.5

Variants of: B2
Test: as above
Details: c terminus: a fixed tail appended

Variant	protein stability index
L1H	3.85
L1T	3.66
L1S	4.1
L1I	1.72
L1A	3.3
L1Y	2.22
L1R	3.76
L1F	1.12
L1K	3.5
L1Q	3.83
L1C	2.92
L1E	5.29
L1N	2.96
L1V	2.52
L1P	4.19
Q2I	1.3
Q2N	3.27
Q2E	2.63
Q2F	3.06
Q2K	1.38
Q2T	2.61
Q2W	1.28

Variant	protein stability index
Q2M	1.74
Q2C	3.55
Q2L	1.41
Q2Y	1.24
Q2S	2.63
Q2G	2.38
Q2R	1.82
Q2P	3.05
L8F	2.29
L8D	3.58
L8E	5.35
L8I	2.84
A6R	1.32
A6M	1.36
A6Q	1.54
A6H	2.47
A6I	1.43
A6T	3.11
A6Y	2.03
A6D	2
A6P	3.61
A6V	2.4

Variant	protein stability index
A6F	1.95
A6N	2.19
A6G	2.84
A6W	3.19
A6S	3.27
Q3P	3.53
Q3Y	1.4
Q3N	2.36
Q3R	3.08
Q3M	3.04
Q3I	1.68
Q3K	1.97
Q3T	1.2
Q3A	1.98
Q3G	2.66
Q3L	1.93
Q3E	2.58
L4F	2.97
L4W	2.65
L4M	2.03
L4D	4.69
L4C	1.96

Variant	protein stability index
L4V	1.81
L4H	3.26
L4T	3.18
L4R	3.19
L4E	3.75
L4I	1.49
L4S	3.01
L4P	2.42
L4Q	3.48
L4N	3.83
R7F	2.09
R7E	4.03
R7K	2.28
R7L	3.52
R7I	2.57
R7T	2.52
R7P	2.59
R7N	2.93
R7S	2.72
R7W	2.28
R7V	2.03
R7Q	3.33

Variant	protein stability index
R7A	2.12
R7G	3.55
R7Y	1.73
R7D	3.89
R7H	2.91
R5P	2.98
R5I	2.42
R5T	3.04
R5H	2.61
R5C	1.24
R5D	4.08
R5M	1.84
R5K	2.2
R5N	2.87
R5L	1.17
R5F	2.14
R5E	3.78
R5S	2.76
R5Y	2.34
R5G	2.78
